Data on 1 protein can be found in patent publication US20210253692A1 (GALAPAGOS, published 2021).

This data set deals with the molecule itself. In words: dynamic light scattering in phosphate buffered saline; self-interaction of the antibody.

B1: MAB#1 (antibody, human IgG1, lambda, V domains shown)
VH: EVQLLESGGGLVQPGGSLRLSCAASGFTVSDYAMHWVRQAPGKGLEWVSYIGGVGEGTQYAESVKGRFTISRDNSKNTLYLQMNSLRAEDTAVYYCARGFAIRYYGFDYWGQGTLVTVSS
VL: SYELTQPPSVSVSPGQTASITCSGDKLGDKYAYWYQQKPGQSPVLVIYQDSKRPSGIPERFSGSNSGNTATLTISGTQAEDEADYYCQVFTFPLVTTVFGGGTKLTVLG
notes: also called IL-17C antibody; anti-IL-17C antibody
Regarding B1, the “kD (diffusion interaction parameter)” value was -23.6 mL/g.
